Measurements reported in patent US20190270826A1 (Janssen / Centocor, published 2019).

What was measured:
[1] = biological target: T1, recombinant human IL1RAP ECD (human, UniProt Q9NPH3 21-367); assay: SPR
T1 construct: His-tagged; also called hIL1RAP-ECD; rhuIL1RAP
T1 sequence: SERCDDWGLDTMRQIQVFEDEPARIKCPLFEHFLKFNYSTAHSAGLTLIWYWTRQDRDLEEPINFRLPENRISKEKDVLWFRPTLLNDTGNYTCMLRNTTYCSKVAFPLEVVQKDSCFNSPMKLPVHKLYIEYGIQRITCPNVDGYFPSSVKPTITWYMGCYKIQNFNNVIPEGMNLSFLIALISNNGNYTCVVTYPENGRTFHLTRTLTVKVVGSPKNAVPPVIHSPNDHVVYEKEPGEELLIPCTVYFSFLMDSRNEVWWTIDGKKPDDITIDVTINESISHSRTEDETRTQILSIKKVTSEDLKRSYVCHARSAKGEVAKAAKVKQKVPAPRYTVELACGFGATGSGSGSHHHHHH

[2] = biological target: T2, recombinant cyno IL1RAP ECD (cynomolgus monkey, UniProt P59822 21-367 (rhesus entry)); assay: SPR
T2 construct: also called rcynoIL1RAP
T2 sequence: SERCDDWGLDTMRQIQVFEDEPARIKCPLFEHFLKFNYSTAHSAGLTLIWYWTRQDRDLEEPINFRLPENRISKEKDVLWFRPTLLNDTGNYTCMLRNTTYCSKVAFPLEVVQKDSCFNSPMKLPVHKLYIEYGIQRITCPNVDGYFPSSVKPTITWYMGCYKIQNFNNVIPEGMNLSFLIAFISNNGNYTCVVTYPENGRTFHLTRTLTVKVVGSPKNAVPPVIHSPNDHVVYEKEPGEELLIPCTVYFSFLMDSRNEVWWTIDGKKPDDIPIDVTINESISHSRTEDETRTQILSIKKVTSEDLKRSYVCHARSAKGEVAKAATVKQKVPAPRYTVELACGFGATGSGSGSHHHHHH

[3] = biological target: T1, recombinant human IL1RAP ECD; assay: SPR; remark: listed apart in the source
[4] = biological target: T2, recombinant cyno IL1RAP ECD; assay: SPR; remark: listed apart in the source
[5] = biological target: T1, recombinant human IL1RAP ECD; assay: SPR, summary
[6] = biological target: T2, recombinant cyno IL1RAP ECD; assay: SPR, summary
[7] = biological target: T3, mouse IL1RAP ECD displayed on HEK-293F cells (pDisplay) (mouse, UniProt Q61730 21-367); assay: Murine Binder, summary
T3 sequence: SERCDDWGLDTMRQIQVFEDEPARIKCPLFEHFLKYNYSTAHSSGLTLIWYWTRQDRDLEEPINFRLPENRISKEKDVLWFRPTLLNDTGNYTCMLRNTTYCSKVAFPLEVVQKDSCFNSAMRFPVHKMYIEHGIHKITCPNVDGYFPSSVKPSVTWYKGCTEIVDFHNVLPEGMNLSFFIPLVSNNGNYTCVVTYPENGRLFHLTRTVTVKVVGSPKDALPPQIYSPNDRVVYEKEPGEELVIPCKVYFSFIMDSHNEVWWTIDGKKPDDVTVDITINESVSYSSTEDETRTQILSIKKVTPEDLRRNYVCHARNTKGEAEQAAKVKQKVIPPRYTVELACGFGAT

[8] = biological target: T4, human IL1RAP on cells (endogenous) (human, UniProt Q9NPH3 21-570); assay: cell-based or functional assay
T4 sequence (looked up): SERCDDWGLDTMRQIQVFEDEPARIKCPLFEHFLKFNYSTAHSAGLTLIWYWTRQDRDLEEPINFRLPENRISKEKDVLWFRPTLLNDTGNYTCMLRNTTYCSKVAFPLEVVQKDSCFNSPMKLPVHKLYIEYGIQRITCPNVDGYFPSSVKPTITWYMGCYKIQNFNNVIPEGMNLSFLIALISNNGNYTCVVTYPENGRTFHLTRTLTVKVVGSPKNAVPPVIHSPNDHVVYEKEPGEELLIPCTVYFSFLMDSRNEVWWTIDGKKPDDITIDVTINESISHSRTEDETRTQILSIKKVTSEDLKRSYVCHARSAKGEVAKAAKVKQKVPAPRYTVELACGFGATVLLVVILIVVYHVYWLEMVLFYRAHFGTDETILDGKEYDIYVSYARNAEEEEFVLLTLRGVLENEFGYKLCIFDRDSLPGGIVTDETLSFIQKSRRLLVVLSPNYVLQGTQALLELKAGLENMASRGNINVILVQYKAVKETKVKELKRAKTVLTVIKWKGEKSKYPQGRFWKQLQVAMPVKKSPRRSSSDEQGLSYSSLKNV

[9] = biological target: T1, recombinant human IL1RAP ECD; assay: SPR; human KD over cyno KD
[10] = biological target: T1, recombinant human IL1RAP ECD; assay: SPR, summary; remark: listed apart in the source
[11] = biological target: T1, recombinant human IL1RAP ECD; assay: SPR (ProteOn)
[12] = biological target: T2, recombinant cyno IL1RAP ECD; assay: recombinant protein
[13] = biological target: T5, cyno IL1RAP ECD displayed on HEK-293F cells (pDisplay) (cynomolgus monkey, UniProt P59822 21-367 (rhesus entry)); assay: HEK-293F cells (MSD)
T5 sequence: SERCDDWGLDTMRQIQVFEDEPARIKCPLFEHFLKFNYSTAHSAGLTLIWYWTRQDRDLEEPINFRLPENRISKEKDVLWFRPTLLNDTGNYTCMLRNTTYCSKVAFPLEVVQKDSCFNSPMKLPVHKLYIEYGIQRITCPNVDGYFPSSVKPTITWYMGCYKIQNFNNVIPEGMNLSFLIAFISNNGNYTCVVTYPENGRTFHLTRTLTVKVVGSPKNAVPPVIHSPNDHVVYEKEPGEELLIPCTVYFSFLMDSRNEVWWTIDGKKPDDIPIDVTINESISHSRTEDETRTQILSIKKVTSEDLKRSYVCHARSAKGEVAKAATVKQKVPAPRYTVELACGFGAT

[14] = biological target: T1, recombinant human IL1RAP ECD; assay: SPR; KD against parent IAPB54
human FcRn = biological target: T6, human FcRn (human, UniProt P55899 24-297; P61769 21-119, limits assumed); assay: AlphaScreen competition, human FcRn (n=1); displaced: biotinylated control mAb B21M WT IgG1 (m27); pH 6.0
T6 construct: GST-tagged
Text: (§1) Measurements were made using an AlphaScreen™ assay (Amplified Luminescent Proximity Homogeneous Assay (ALPHA), PerkinElmer, Wellesley, Mass.), a bead-based luminescent proximity assay. Laser excitation of a donor bead excites oxygen, which if sufficiently close to the acceptor bead generates a cascade of chemiluminescent events, ultimately leading to fluorescence emission at 520-620 nm.

human FcγRIIb = biological target: T7, human FcγRIIb (human, UniProt P31994 43-217, limits assumed); assay: AlphaScreen competition, human FcγRIIb (n=1); displaced: biotinylated control mAb B21M hIgG1 WT; pH 7.2
T7 construct: GST-tagged
T7 sequence (looked up): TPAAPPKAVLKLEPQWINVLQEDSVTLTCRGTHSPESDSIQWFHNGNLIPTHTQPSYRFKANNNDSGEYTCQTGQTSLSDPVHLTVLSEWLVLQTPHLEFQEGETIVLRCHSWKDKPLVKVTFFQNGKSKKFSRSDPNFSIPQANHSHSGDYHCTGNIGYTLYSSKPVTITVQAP
Text: as §1

human FcγRI = biological target: T8, human FcγRI (human, UniProt P12314 16-292, limits assumed); assay: AlphaScreen competition, human FcγRI (n=1); displaced: biotinylated control mAb B21M hIgG1 AlaAla; pH 7.2
T8 construct: GST-tagged, on glutathione acceptor beads; also called FcγRT [sic]
Text: as §1

B1: IC3B7 (bispecific antibody, human IgG4 S228P, kappa, lambda, F234A L235A)
heavy 1: EVQLVESGGGLVQPGGSLKLSCAASGFTFNTYAMNWVRQASGKGLEWVGRIRSKYNAYATYYAASVKGRFTISRDDSKNTAYLQMNSLKTEDTAVYYCTRHGNFGNSYVSWFAYWGQGTLVTVSSASTKGPSVFPLAPCSRSTSESTAALGCLVKDYFPEPVTVSWNSGALTSGVHTFPAVLQSSGLYSLSSVVTVPSSSLGTKTYTCNVDHKPSNTKVDKRVESKYGPPCPPCPAPEAAGGPSVFLFPPKPKDTLMISRTPEVTCVVVDVSQEDPEVQFNWYVDGVEVHNAKTKPREEQFNSTYRVVSVLTVLHQDWLNGKEYKCKVSNKGLPSSIEKTISKAKGQPREPQVYTLPPSQEEMTKNQVSLTCLVKGFYPSDIAVEWESNGQPENNYKTTPPVLDSDGSFLLYSKLTVDKSRWQEGNVFSCSVMHEALHNHYTQKSLSLSLGK
light 1: QAVVTQEPSLTVSPGGTVTLTCRSSTGAVTTSNYANWVQQKPGQAPRGLIGGTNKRAPGTPARFSGSLLGGKAALTLSGAQPEDEAEYYCALWYSNLWVFGGGTKLTVLGQPKAAPSVTLFPPSSEELQANKATLVCLISDFYPGAVTVAWKADSSPVKAGVETTTPSKQSNNKYAASSYLSLTPEQWKSHRSYSCQVTHEGSTVEKTVAPTECS
heavy 2: not shown
light 2: not shown
notes: IgG4-PAA, Fab arm exchange; also called IAPB17 x CD3B220
[1]
  Kd: 6.1 nM
  koff: 0.00659 s⁻¹
  kon: 1.08e+06 M⁻¹ s⁻¹
[2]
  Kd: 4.74 nM
  koff: 0.00583 s⁻¹
  kon: 1.23e+06 M⁻¹ s⁻¹
[3]
  Kd: 6.1 nM
[4]
  Kd: 4.74 nM
[5]
  Kd: 6.1 nM
[6]
  Kd: 4.74 nM
[7]
  binding result: binds
[8]
  EC50, T-cell mediated cytotoxicity: 3.4 nM
[9]
  Hu/Cyno KD Ratio: 1.3

B2: IAPB54 (antibody, human IgG4 S228P, lambda, F234A L235A, V domains shown)
VH: QVQLVQSGSELKKPGASVKVSCKASGYTFNTYAMNWVRQAPGQGLEWMGWINTNTGNPTYAQGFTGRFVFSLDTSVSTAYLQISSLKAEDTAVYYCARRYFDWLLGAFDIWGQGTMVTVSS
VL: QSALTQPRSVSGSPGHSVTISCTGTSSDVGDYNYVSWYQQRPGKVPKLLIYDVSKRPSGVPDRFSGSKSGNTASLTISGLQAEDEAIYFCCSYAGNYNVVFGGGTKLTVLG
notes: IgG4-PAA; also called 17B04 with human IgG4-PAA
[10]
  Kd: 0.58 nM
[11]
  Kd: 0.0775 nM
  koff: 7.48e-05 s⁻¹
  kon: 965000 M⁻¹ s⁻¹
[12]
  binding result: binds
[13]
  binding result: binds
[14]
  Fold Different from parent: 1 fold

B3: IAPB63 (antibody, human IgG4 S228P, lambda, F234A L235A)
heavy: not shown
light: QSALTQPRSVSGSPGHSVTISCTGTSSDVGDYNYVSWYQQRPGKVPKLLIYDVSKRPSGVPDRFSGSKSGNTASLTISGLQAEDEAIYFCASYAGNYNVVFGGGTKLTVLGQPKAAPSVTLFPPSSEELQANKATLVCLISDFYPGAVTVAWKADSSPVKAGVETTTPSKQSNNKYAASSYLSLTPEQWKSHRSYSCQVTHEGSTVEKTVAPTECS
notes: IgG4-PAA; whole chains; also called IAPB54-LC-C91A
[10]
  Kd: 0.11 nM
[11]
  Kd: 0.108 nM
  koff: 9.76e-05 s⁻¹
  kon: 900000 M⁻¹ s⁻¹
[14]
  Fold Different from parent: 1.4 fold
Human FcRn
  IC50 (read off the curve): ~200 nM
Human FcγRIIb
  binding result: binds
Human FcγRI
  IC50 (read off the curve): ~90 nM

B4: IAPB64 (antibody, human IgG4 S228P, lambda, F234A L235A, V domains shown)
VH: QVQLVQSGSELKKPGASVKVSCKASGYTFNTYAMNWVRQAPGQGLEWMGWINTNTGNPTYAQGFTGRFVFSLDTSVSTAYLQISSLKAEDTAVYYCARRYFDWLLGAFDIWGQGTMVTVSS
VL: QSALTQPRSVSGSPGHSVTISCTGTSSDVGDYNYVSWYQQRPGKVPKLLIYDVSKRPSGVPDRFSGSKSGNTASLTISGLQAEDEAIYFCSSYAGNYNVVFGGGTKLTVLG
notes: IgG4-PAA; whole chains; also called IAPB54-LC-C91S
[10]
  Kd: 0.38 nM
[11]
  Kd: 0.367 nM
  koff: 0.000234 s⁻¹
  kon: 638000 M⁻¹ s⁻¹
[14]
  Fold Different from parent: 4.7 fold
